Test results taken from patent US20180258163A1 (Chugai, published 2018).

Columns and labels:
Experiment in all cases: SPR, Ab captured on Protein L, 20C
soluble human FcγRIa = molecular target: T1, soluble human FcγRIa (human, UniProt P12314 16-292, limits assumed)
T1 construct: soluble His-tagged form; also called hFcγRIa
Protocol: (§1) Soluble FcγRIa and FcγRIIIa in both human and cynomolgus monkey were produced in the form of His-tagged molecules by methods known to those of ordinary skill in the art. An appropriate amount of rProtein L (BioVision) was immobilized onto the Sensor chip CM4 (GE Healthcare) by the amine coupling method and antibody of interest was captured. Next, soluble FcγRIa or FcγRIIIa was injected with a running buffer (used as a reference solution), and was made to interact with the antibodies captured onto the sensor chip. HBS-EP+ (GE Healthcare) was used as the running buffer, and HBS-EP+ was also used to dilute the soluble FcγRIa or FcγRIIIa. To regenerate the sensor chip, 10 mM glycine-HCl at pH 1.5 was used. All measurements were carried out at 20° C.

[1] = molecular target: T2, soluble cynomolgus monkey FcγRIIIa (cynomolgus monkey, UniProt Q8SPW2 17-208, limits assumed)
T2 construct: soluble His-tagged form; also called cynoFcγRIIIa
T2 sequence (Q8SPW2 17-208 limits assumed): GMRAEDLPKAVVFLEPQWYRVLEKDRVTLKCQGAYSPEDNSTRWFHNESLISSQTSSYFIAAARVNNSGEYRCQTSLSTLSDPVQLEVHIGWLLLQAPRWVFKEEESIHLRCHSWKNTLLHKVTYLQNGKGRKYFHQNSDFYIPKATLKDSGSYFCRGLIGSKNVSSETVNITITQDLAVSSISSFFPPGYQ
Protocol: as §1

soluble human FcγRIIIa = molecular target: T3, soluble human FcγRIIIa (human, UniProt P08637 17-208, limits assumed)
T3 construct: soluble His-tagged form; also called hFcγRIIIa
T3 sequence (P08637 17-208 limits assumed): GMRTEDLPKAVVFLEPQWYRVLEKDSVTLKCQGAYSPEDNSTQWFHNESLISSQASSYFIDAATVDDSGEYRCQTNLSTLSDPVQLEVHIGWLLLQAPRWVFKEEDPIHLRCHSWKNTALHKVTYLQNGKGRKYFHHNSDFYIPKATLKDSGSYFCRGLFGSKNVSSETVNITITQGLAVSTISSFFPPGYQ
Protocol: as §1

Measured: binding result

T1 sequence (P12314 16-292 limits assumed): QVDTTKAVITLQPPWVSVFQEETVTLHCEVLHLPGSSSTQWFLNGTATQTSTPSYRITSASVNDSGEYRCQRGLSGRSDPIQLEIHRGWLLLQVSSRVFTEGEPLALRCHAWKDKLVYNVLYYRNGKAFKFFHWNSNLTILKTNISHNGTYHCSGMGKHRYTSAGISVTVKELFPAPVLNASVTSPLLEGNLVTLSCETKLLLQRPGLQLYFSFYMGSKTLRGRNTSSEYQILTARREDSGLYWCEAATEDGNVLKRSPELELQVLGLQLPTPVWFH

B1: H1009/L395-F1886s (antibody)
heavy: QVQLVESGGGLVQPGGSLRLSCAASGFTFSDYYLSWVRQAPGKGLEWVGLIRNKDNYHTPEYSASVKGRFTISRDDSKNSLYLTMSDLKTEDTAVYYCARENHRYDVELAYWGQGTLVTVSSASTKGPSVFPLAPSSKSTSGGTAALGCLVKDYFPEPVTVSWNSGALTSGVHTFPAVLQSSGLYSLSSVVTVPSSSLGTQTYICNVNHKPSNTKVDKKVEPKSCDKTHTCPPCPAPELRRGPKVFLFPPKPKDTLMISRTPEVTCVVVDVSHEDPEVKFNWYVDGVEVHNAKTKPREEQYNSTYRVVSVLTVLHQDWLNGKEYKCKVSNKALPAPIEKTISKAKGQPREPQVYTLPPSREEMTKNQVSLTCLVKGFYPSDIAVEWESNGQPENNYKTTPPVLDSDGSFFLYSKLTVDKSRWQQGNVFSCSVLHEALHAHTTRKELSLSP
light: DIQMTQSPSSLSASVGDRVTITCRASEIIYSYLAWYQQKPGKAPKLLIYKAKTHADGVPSRFSGSGSGTDFTFTISSLQPEDIATYYCKHHFGFPRTFGQGTKVEIKRTVAAPSVFIFPPSDEQLKSGTASVVCLLNNFYPREAKVQWKVDNALQSGNSQESVTEQDSKDSTYSLSSTLTLSKADYEKHKVYACEVTHQGLSSPVTKSFNRGEC
notes: copies: 2 + 2
no binding: soluble human FcγRIa | [1] | soluble human FcγRIIIa

B2: H1009/L395-F1974m (antibody)
heavy: QVQLVESGGGLVQPGGSLRLSCAASGFTFSDYYLSWVRQAPGKGLEWVGLIRNKDNYHTPEYSASVKGRFTISRDDSKNSLYLTMSDLKTEDTAVYYCARENHRYDVELAYWGQGTLVTVSSASTKGPSVFPLAPSSKSTSGGTAALGCLVKDYFPEPVTVSWNSGALTSGVHTFPAVLQSSGLYSLSSVVTVPSSSLGTQTYICNVNHKPSNTKVDKKVEPKSCDKTHTCPPCPAPELRRGPSVFLFPPKPKDTLMISRTPEVTCVVVDVSHEDPEVKFNWYVDGVEVHNAKTKPREEQYNSTYRVVSVLTVLHQDWLNGKEYKCKVSNKGLPSSIEKTISKAKGQPREPQVYTLPPSREEMTKNQVSLTCLVKGFYPSDIAVEWESNGQPENNYKTTPPVLDSDGSFFLYSKLTVDKSRWQQGNVFSCSVLHEALHAHTTRKELSLSP
light: DIQMTQSPSSLSASVGDRVTITCRASEIIYSYLAWYQQKPGKAPKLLIYKAKTHADGVPSRFSGSGSGTDFTFTISSLQPEDIATYYCKHHFGFPRTFGQGTKVEIKRTVAAPSVFIFPPSDEQLKSGTASVVCLLNNFYPREAKVQWKVDNALQSGNSQESVTEQDSKDSTYSLSSTLTLSKADYEKHKVYACEVTHQGLSSPVTKSFNRGEC
notes: copies: 2 + 2
no binding: soluble human FcγRIa | [1] | soluble human FcγRIIIa
